From patent publication US20220090025A1

Molecular target: CAR (coxsackie and adenovirus receptor) (human) (UniProt P78310)
Assay: cell-based or functional assay

Sequence of UniProt P78310 (P78310 20-365): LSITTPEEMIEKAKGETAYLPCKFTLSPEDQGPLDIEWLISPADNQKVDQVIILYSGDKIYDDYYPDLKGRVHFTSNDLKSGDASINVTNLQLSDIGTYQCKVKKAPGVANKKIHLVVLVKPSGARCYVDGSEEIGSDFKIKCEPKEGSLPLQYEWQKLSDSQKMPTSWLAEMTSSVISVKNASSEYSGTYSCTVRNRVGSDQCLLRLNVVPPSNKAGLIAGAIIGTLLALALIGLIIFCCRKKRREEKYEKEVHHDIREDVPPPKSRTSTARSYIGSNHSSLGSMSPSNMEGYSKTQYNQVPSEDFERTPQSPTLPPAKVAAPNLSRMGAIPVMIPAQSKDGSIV

**Q.** How did the reduction of GFP transduction of U343 cells by naked type Ad (MOI 20) after pretreatment with fiber protein at 0.2 µg/ml, flow cytometry turn out when “CAR-specific fiber protein (fiber protein of adenovirus) (ligand)” was run?
**A.** Its reduction of GFP transduction of U343 cells by naked type Ad (MOI 20) after pretreatment with fiber protein at 0.2 µg/ml, flow cytometry is 67 % reduced.

**Q.** What about the reduction of GFP transduction of U343 cells by naked type Ad (MOI 20) after pretreatment with fiber protein at 2 µg/ml, flow cytometry of the same substance?
**A.** The reduction of GFP transduction of U343 cells by naked type Ad (MOI 20) after pretreatment with fiber protein at 2 µg/ml, flow cytometry was 90 % reduced.
